assay: yeast display, Sf9 membrane polyspecificity reagent, FACS + sequencing; frameworks hold sequencing errors
Procedure, shortened: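 Polyreactivity labels are assigned by the sorting gate from which each nanobody was recovered. The gates were low and high (top ~1%), set on anti-HA fluorescence for expression and streptavidin fluorescence for reagent binding. Before sorting, galactose-induced (36–48 hours) yeast display cells were stained for 1 hour at 4 °C with 10% biotinylated, detergent-solubilized Sf9 membrane reagent.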

Row | Sequence | polyreactivity (PSR sort gate)
1 | QVQLVESGGGLVQAGGSLRLSCAASGRIFPGYAMGWYRQAPGKERELVAAISWIGGDTYYADSVKGRFTISRDNAKNTVYLQMNSLKPEDTAVYYCAARYGRHRVSWYATWRYGYWGQGTQVTVSS | low polyreactivity
2 | QVQLVESGGGLVQAGGSLRLSCAASGRIFPKNAMGWYRQAPGTERELVAAISSGGRTKYADSVKGRFTISRDNAKNTVYLQMNSLKPEDTAVYYCAAYFVSKTGGYYYWGQGTQVSVSS | high polyreactivity
3 | QVQLVESGGGLVQAGGSLRLSCAASGRIFPLYAMGWYRQAPGKERELVAAITSSGGSTYYPDSVKGRFTISRDNAKNTVYLQMNSLKPEDTAVYYCAADYSVYWLDYGYWGQGTQVTVSS | low polyreactivity
4 | QVQLVESGGGLVQAGGSLRLSCAASGRIFPPNAMGWYRQGPGKERELVAGITSSGDTTYYADSVKGRFTISRDHAKKTVNLQMHSLKPEDTAVNYCAKDDVYADDRSALFDYWGQGTQVTVSS | low polyreactivity
5 | QVQLVESGGGLVQAGGSLRLSCAASGRIFPRYAMAWYRQAPGKERELVARITRRGGITYYADSVKGRFTISRDNAKNTVYLQMNSLKPEDTAVYYCNVDYYRGGDFSYGYDYWGQGTQVTVSS | high polyreactivity
6 | QVQLVESGGGLVQAGGSLRLSCAASGRIFPRYAMGWYRQAPGKERELFATISSGGSTYYADSVKGRFTISRDNAKNTVYLQMNSLKPEDTAVYYCAARKRPYTVINGMDYWGQGTQVTVSS | low polyreactivity
7 | QVQLVESGGGLVQAGGSLRLSCAASGRIFPRYAMGWYRQAPGKERELVAGINSGGRTNYADSVKGRFTISRDNAKNTVYLQMNSLKPEDTAVYYCAKRTYPYGTYRSVWGYDYWGQGTQVTVSS | low polyreactivity
8 | QVQLVESGGGLVQAGGSLRLSCAASGRIFPRYAMGWYRQAPGKERELVATISSGGSTYYADSVKGRFTISRDNAKNTVYLQMNSLKPEDTAVYYCAARKRPYTVINGMDYCGQGTQVTVSS | low polyreactivity
9 | QVQLVESGGGLVQAGGSLRLSCAASGRIFPSYAMGRYRQAPGKERELVAAISRSGGRTYYADSVKGRFTISRDNAKNTVYFQMNSLKPEDTAVYYCARYGPYQSSYHYDYWGQGSQVTVSS | high polyreactivity
10 | QVQLVESGGGLVQAGGSLRLSCAASGRIFPSYAMGWYIQAPGKERELVAAITSSDSTYYADSVKGRFTISRDNAKNTVYLQMNSLKPEDTAVYYCAAAYSYSGWWWFGYWGQGTQVTVSS | high polyreactivity
11 | QVQLVESGGGLVQAGGSLRLSCAASGRIFPSYAMGWYRQAPGKERELVAAISSSGGRTYYADSVKGRFTISRDNAKNTVYLQRNSLKPEDSAVYYCAARWVQYGVRYDYWGHGTQVTVSS | high polyreactivity
12 | QVQLVESGGGLVQAGGSLRLSCAASGRIFPSYAMVWYIQAPGKEREMVATISYRGTSTYYADSVKGRFTISRDNAKNTVYLQMNSLKPEDTGVYYCNKATRHHFYYWGQGTQVTVSS | high polyreactivity
13 | QVQLVESGGGLVQAGGSLRLSCAASGRIFPTNAMGWYRQAPGKERELVASITRSGSTYYADSVTGRFTISRDNAKNTVYLQMNSLKPEDTAVYYCAAYAYIFLDWGGYPYYLYEYDYWGQGTQVTVSS | low polyreactivity
14 | QVQLVESGGGLVQAGGSLRLSCAASGRIFPVNDMGWYRQAPGKERELVASITYSGGSTYYADSVKGRFTISRDNAKNTVYLQMNSLKPEDTAVYYCAADDGSQYYFDSPHEYDYWGQGTQVTVSS | low polyreactivity
15 | QVQLVESGGGLVQAGGSLRLSCAASGRIFPVYAMGWYRQAPGKERELVAAITSGVSTNYADSVKGRFTISRDNAKYTVYLQMNSLKPEDTAVYYCNKDYTTYPYYEYGYWGQGTQVTVSS | low polyreactivity
16 | QVQLVESGGGLVQAGGSLRLSCAASGRIFPYNAMGWYIQGPGKERELVAAISGGGSSTYYADSVKGRFTISRDNAKNTVYLQMNSLKPEVTAVYYCAAQAWWDGEYDYWGQGTKVTVSS | high polyreactivity

Source: the nanobody polyreactivity screen of Harvey et al. (2022)
